# According to PMC5938751:
# Tests used:
# [1] = tested on: Nc1ccn([C@@H]2O[C@H](COP(=O)(O)OP(=O)(O)NC(=O)CC[C@H](N)C(=O)O)[C@@H](O)[C@H]2O)c(=O)n1; assay: purified protein; details: pH 8.0, 25 °C
# [2] = tested on: N[C@@H](CCC(=O)NP(=O)(O)O)C(=O)O; assay: purified protein; details: fixed 5.0 mM MgCTP, pH 8.0, 25 °C
Substance,Km [1] [µM],kcat [1] [s⁻¹],Km [2] [µM],kcat [2] [s⁻¹]
Cj1417 (Campylobacter jejuni subsp. jejuni NCTC 11168 = ATCC 700819),28 ± 3,0.567 ± 0.02,–,–
Cj1416 (Campylobacter jejuni subsp. jejuni NCTC 11168 = ATCC 700819),–,–,120 ± 30,0.95 ± 0.1
